A short description of this test: Overlay on thin-layer chromatography plates containing glycolipids. The test is classed as binding. An excerpt:
2) The DNA sequence from nucleotide position 3674 to 4088 (bounded by XhoI sites) which corresponds to the CRD was amplified by the polymerase chain reaction and ligated into one of the pET expression vectors (Rosenberg et al. (1987), Gene 56, 125-135). Expression of the polypeptide in E. coli utilized the T7 RNA polymerase promoter system (Tabor, S. & Richardson, C.C. (1985), Proc. Natl. Acad. Sci. U.S.A. 82). [^35 S] […] Cell lysates containing the expressed protein were overlaid on thin-layer chromatography plates containing glycolipid standards and the binding pattern was compared to that of FHA.

B1: CRD protein: expressed polypeptide of FHA carbohydrate recognition domain, residues 1141-1279, 18kD (protein, UniProt P12255 1141-1279, looked up, fragment)
chain: LEHSTIESKISQSVLAAKGDKGKPAVSVKVAKKLFLNGTLRAVNDNNETMSGRQIDVVDGRPQITDAVTGEARKDESVVSDAALVADGGPIVVEAGELVSHAGGIGNGRNKENGASVTVRTTGNLVNKGYISAGKQGVL
Take B1: the “binding to lactosylceramides (in words)” value is “bound to these carbohydrates in a pattern similar to FHA, especially in the ability to bind to lactosylceramides”.
